Measurements taken from patent US20070015242.

Target: recombinant NC1 fragment of type XVIII collagen (UniProt P39061)
Chain of UniProt P39061 (P39061 whole entry, looked up, the tested form may be a part): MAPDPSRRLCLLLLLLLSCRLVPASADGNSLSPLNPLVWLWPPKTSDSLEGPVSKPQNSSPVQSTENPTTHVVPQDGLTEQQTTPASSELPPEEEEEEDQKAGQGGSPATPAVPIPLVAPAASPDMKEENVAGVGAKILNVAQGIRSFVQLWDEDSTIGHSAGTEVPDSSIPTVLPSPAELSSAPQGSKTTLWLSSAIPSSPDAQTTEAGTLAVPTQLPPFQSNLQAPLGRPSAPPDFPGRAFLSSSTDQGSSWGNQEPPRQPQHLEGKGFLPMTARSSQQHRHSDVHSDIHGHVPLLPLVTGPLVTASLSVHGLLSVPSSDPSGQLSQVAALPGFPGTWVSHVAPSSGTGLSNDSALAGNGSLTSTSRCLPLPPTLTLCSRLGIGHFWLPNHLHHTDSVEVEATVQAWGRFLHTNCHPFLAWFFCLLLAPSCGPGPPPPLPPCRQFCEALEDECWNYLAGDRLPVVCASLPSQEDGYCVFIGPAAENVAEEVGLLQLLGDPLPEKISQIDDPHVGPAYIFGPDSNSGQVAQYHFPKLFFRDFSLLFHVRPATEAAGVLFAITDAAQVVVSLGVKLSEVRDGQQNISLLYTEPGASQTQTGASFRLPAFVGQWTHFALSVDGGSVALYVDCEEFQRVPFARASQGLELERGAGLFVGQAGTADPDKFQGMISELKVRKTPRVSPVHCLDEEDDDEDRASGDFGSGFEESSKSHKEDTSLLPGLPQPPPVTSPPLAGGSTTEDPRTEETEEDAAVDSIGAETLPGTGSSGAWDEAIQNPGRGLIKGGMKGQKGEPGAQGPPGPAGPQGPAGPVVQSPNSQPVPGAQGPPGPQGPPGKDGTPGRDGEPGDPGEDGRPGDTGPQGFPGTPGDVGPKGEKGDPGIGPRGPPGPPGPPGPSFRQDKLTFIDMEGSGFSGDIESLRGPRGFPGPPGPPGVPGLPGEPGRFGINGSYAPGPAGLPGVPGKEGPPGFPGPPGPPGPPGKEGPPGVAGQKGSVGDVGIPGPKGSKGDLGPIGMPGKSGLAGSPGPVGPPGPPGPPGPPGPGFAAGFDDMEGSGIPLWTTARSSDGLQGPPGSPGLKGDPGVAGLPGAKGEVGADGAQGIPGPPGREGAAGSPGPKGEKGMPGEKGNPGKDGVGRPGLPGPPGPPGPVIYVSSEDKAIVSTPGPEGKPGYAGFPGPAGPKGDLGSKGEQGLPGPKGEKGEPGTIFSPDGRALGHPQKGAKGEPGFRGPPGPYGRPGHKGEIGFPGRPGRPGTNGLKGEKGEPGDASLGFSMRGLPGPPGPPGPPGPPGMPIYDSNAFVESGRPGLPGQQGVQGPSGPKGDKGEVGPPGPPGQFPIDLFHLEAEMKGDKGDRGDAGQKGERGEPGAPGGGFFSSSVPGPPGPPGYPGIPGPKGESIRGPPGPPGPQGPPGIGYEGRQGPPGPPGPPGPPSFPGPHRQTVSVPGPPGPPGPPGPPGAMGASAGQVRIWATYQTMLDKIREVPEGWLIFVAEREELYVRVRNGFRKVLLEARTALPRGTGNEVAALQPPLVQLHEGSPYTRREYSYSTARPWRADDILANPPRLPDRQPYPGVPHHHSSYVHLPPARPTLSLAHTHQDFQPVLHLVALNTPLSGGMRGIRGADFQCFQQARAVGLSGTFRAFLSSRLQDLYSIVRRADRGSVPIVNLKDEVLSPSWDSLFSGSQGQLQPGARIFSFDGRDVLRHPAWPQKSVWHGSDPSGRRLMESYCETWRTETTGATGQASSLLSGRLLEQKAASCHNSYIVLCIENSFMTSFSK

Chain of matrix metalloproteinase-2 (MMP-2), active enzyme (P08253 110-660): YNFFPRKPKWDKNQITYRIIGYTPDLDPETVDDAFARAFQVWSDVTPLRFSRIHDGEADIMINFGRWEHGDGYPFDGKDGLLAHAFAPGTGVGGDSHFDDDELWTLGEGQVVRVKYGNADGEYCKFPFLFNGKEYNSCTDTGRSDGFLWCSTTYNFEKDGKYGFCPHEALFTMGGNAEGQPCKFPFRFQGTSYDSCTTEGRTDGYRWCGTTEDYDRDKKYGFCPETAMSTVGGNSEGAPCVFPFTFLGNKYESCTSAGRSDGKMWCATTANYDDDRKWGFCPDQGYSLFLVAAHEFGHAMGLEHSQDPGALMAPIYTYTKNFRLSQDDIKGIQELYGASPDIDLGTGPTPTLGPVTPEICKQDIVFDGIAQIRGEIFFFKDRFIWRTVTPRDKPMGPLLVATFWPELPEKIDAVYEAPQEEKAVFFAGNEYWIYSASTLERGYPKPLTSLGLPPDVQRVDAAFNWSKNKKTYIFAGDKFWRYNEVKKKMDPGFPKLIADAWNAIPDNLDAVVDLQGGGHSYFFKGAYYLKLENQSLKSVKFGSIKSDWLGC

| Molecule | cleavage of recombinant NC1 fragment (Western blot of degradation products) | cleavage of NC1 fragments at pH 5.5, 6.5 and 7.5 (gel) |
| --- | --- | --- |
| matrix metalloproteinase-9 (MMP-9), active enzyme | Treatment of the recombinant NC1 fragment of type XVIII collagen with MMP-2 or -9, similar to control, did not produce NC1 degradation products |  |
| matrix metalloproteinase-14 (MMP-14), active enzyme | MMP-7 and MMP-14 cleaved the recombinant NC1 fragment to produce neostatin-7, neostatin-14 and several endostatin-containing fragments |  |
| matrix metalloproteinase-2 (MMP-2), active enzyme | Treatment of the recombinant NC1 fragment of type XVIII collagen with MMP-2 or -9, similar to control, did not produce NC1 degradation products |  |
| matrix metalloproteinase-7 (matrilysin, MMP-7), active enzyme (enzyme, UniProt P09237 95-267, looked up, species assumed, APMA-activated) Matrilysin: YSLFPNSPKWTSKVVTYRIVSYTRDLPHITVDRLVSKALNMWGKEIPLHFRKVVWGTADIMIGFARGAHGDSYPFDGPGNTLAHAFAPGTGLGGDAHFDEDERWTDGSSLGINFLYAATHELGHSLGMGHSSDPNAVMYPTYGNGDPQNFKLSQDDIKGIQKLYGKRSNSRKK | MMP-7 and MMP-14 cleaved the recombinant NC1 fragment to produce neostatin-7, neostatin-14 and several endostatin-containing fragments | the cleavage of collagen XVIII/NC1 by MMP-7 is pH sensitive, and proceeds less efficiently at more acidic pH |
